Laboratory results taken from patent publication US20260167731A1.

Columns and labels:
human CCR8 (human) [1] = molecular target: human CCR8 (human) (UniProt P51685); assay: cell-based or functional assay
human CCR8 (human) [2] = molecular target: human CCR8 (human) (UniProt P51685); assay: flow cytometry, hCCR8 transfected CHOK1 cells

Row | EC80 of hCCL1, hCCR8 Gi2 BRET, HEK-293 in suspension (protocol #1) (human CCR8 (human) [1]) [nM] | EC80 of hCCL1, hCCR8 Gi2 BRET, adherent HEK-293 (protocol #4) (human CCR8 (human) [1]) [nM] | % positive cells (human CCR8 (human) [2]) [%] | MFI fold change to isotype ctrl (human CCR8 (human) [2]) [fold] | Substance
1 | 6 | 0.6 | – | – | hCCL1 (from UniProt P22362 24-96) (ligand)
2 | – | – | 86.5 | 19.8 | murine anti-human CCR8 monoclonal antibody L263G8
